These results are taken from patent US20240417762A1, “MICROORGANISMS AND METHODS FOR PRODUCING REUTERIN” (Wisconsin Alumni Research Foundation, priority 2023, published 2024).

The experiment relates to reuterin production. Briefly: Determination of reuterin formation during growth of L. reuteri ATCC PTA-6475 and its variants. The experiment is classed as cell-based, Limosilactobacillus reuteri. On the procedure: FIGS. 5A-5E. Reuterin production of L. reuteri ATCC PTA-6475 and its variants during the growth. Overnight cells were inoculated to reach an initial OD 0.1 in mMRS supplemented with 100 mM glucose and 40 mM glycerol. Supernatant was collected every hour during the growth at 37° C. and the reuterin concentrations were determined. The number of cells of each strain at each time point was normalized to an OD of 3. Data are shown as means±standard deviations for three independent experiments. Statistical significance was determined by unpaired t-test. * P<0.05; **** P<0.0001. In FIGS. 5C and 5D, “orf14” refers to orf14 from L. reuteri. In FIG. 5E, the origins of the orf14 genes (L. mucosae or L. reuteri) are indicated.
To characterize the reuterin production during growth, strains were cultured at 37° C. anacrobically in deMan-Rogosa-Sharpe medium (MRS; 288110, BD BioSciences) for 18 h, and then bacteria were sub-cultured to reach an initial OD600 of 0.1 in modified MRS (10 g peptone, 10 g beef extract, 5 g yeast extract, 2 g ammonium citrate dibasic, 2 g K2HPO4, 0.1 g MgSO4, 0.05 g MnSO4, and 1.0 g Tween 80 per liter) supplemented with 100 mM glucose. Cultures were incubated anaerobically at 37° C. Strains harboring pSIP411 or its variants were grown in mMRS supplemented with 5 μg/mL erythromycin. Where applicable, induction peptide (10 ng/ml) (MAGNSSNFIHKIKQIFTHR (SEQ ID NO:34)) was added. Samples were collected every hour up to 8 hours. Cell density was monitored using GENESYS 20 visible spectrophotometer (Thermo Scientific) and reuterin production was measured as described in Zhang et al. 2020. Briefly, cell-free supernatants (50 μL) were mixed with 37.5 μL tryptophan (Sigma-Aldrich) in a 96 well plate, followed by an addition of 150 μL 37% HCl (Thermo scientific). After incubating at 37° C. for 20 min, OD560 was measured by GloMax plate reader (Promega). Two-fold dilutions of acrolein (06-722-501, ThermoFisher) were used to generate a standard curve to quantify reuterin (Doleyres et al. 2005). […]

B1: Orf14: Limosilactobacillus reuteri Orf14 phage protein (SEQ ID NO:2), overexpressed from pSIP-orf14 (protein, listed as Lactobacillus reuteri)
chain: VIYMNKIKRLCKKYQQVIYTLFAVLVIISVVYFALHGFDSFVKWATTDVGSVADWAGSIGTILAFVAVIWQQGRQENITRAVHIEESRPRFSLTYTPKPVLKTRVLFWGNGRTAVNINEILGSRSAENYRFISIENISNNVVYDYSIILKYHSNDNARVRKDYWSSHGLFPRRSVAIVPKFMGTDKDKIGNYIYDELLVKFTTPANEVGFFISKNINNAQTDSSFGKSQYYFVRGSHVKRVTAINTDKMIDVDSSICRKLDKEFDEIIGITSLGEINENGKLS
As for B1, the “increase in reuterin production compared to that in the wildtype strain” value (Orf14 overexpressed in L. reuteriΔΦ1ΔΦ2, following 5 h incubation, P<0.05) turned out to be 3 fold. The reuterin production result (growth at 37° C. in mMRS with 100 mM glucose and 40 mM glycerol, supernatant, normalized to OD 3) is on record as “rescued reuterin production”.

B2: Orf14-mucosae: Limosilactobacillus mucosae Orf14 protein (SEQ ID NO:4), natural homolog, codon optimized for expression in L. reuteri (protein, listed as Lactobacillus mucosae)
chain: MKRVKELCKKYQQVIYTLLAVVAIVGVVYFALHGFNSFIKWATTDVGSVADWAGSIGTILAFIAVIWQQGRQENITRAVHVEESRPRFSVTYTPKPQAKTKMLFWGNNRTLSQINTMLNNRNGENYRFINIENISNNVVYDYSIILKYHFYDNSLVRKDYWSSHGLFPRRSIIIVPKFLGTGKDKIGNYIYDELLIKFTTPANEIGFFKMTNVNGNRTDSSFGDSQYYFVRGSHIKRVTAINTDEMIKADSPLCRKLDREFSETTGGTNFGAIGEDGKAY
B2: the “higher reuterin production compared to the overexpression of native Orf14” value (overexpression in L. reuteri (FIG. 5E)) was determined as 2.9 fold.
